The values below come from patent US7271245B2, “Methods and compositions for inhibition of metastasis” (The Scripps Research Institute, priority 2004, dated 2007).

The subject of assay [1] is BMS human breast cancer cells. As to the kind of experiment: Haptotactic tumor cell migration toward fibrinogen (transwell). Type of assay: cell-based. To be noted: 2 μM scFv, 16 hrs at 37° C. The method, then:
FIGS. 3A, 3B, 3C, 3D, 3E. scFv Bc-12 and Bc-15 inhibit αvβ3 mediated adhesive breast cancer cell functions. (A) Adhesion of BMS human breast cancer cells to fibrinogen (Fg), vitronectin (VN) or type I collagen (Col I) in the absence or presence of 3 μM Bc-12, Bc-15 or their RGE mutants Mut-12, Mut-15, compared to 200 μM GRGDSPK peptide (SEQ ID NO: 11). Protein coating concentrations: 10 μg/ml (VN, Col I) or 20 μg/ml (Fg). Adhesion time: 30 min at 37° C. (B) Effect of scFvs on haptotactic BMS cell migration toward a fibrinogen substrate (16 hrs at 37° C. in transwell chambers with or without 2 μM Bc-12, Bc-15 or their RGE mutants Mut-12 or Mut-15, compared to 200 μM GRGDSPK peptide) (SEQ ID NO: 11). (C) Effect of scFvs on breast cancer cell arrest during blood flow. Metastatic BMS cells, labeled with hydroethidine, were suspended in human blood (anticoagulated with 50 nM PPACK) and perfused over a collagen I matrix at a venous wall shear rate of 50 s^−1. Under these conditions, breast cancer cells arrest by αvβ3 mediated binding to adherent, thrombus forming platelets. Tumor cell adhesion was quantified by image acquisition at 30 predefined positions during blood flow. Left: representative images of platelet signal (thrombi, green fluorescence) and tumor cell signal (red fluorescence) at identical x,y positions. Right: Number of arrested tumor cells in the presence of 3 μM non-function blocking anti αv scFv Bc-20 or function blocking anti αvβ3 scFvs Bc-12 or Bc-15. (D) scFv Bc-15 is internalized by human breast cancer cells and reduces cell proliferation. Left: confocal images of BMS cells incubated for 4 hrs with FITC-Bc-15 at 4° C. (binding) versus 37° C. (allowing internalization). Right: Phase contrast images of BMS cell cultures 4 days after seeding in the presence of 2 μM RGE containing scFv Mut-15, or RGD containing Bc-15. […]
Cell adhesion and migration. Tumor cell adhesion under stationary conditions was analyzed as detailed earlier (19). […] Haptotactic tumor cell migration toward fibrinogen was analyzed in transwell chambers as detailed earlier. […]

The next assay concerns BMS breast cancer cells. As to the kind of experiment: Antibody internalization (confocal microscopy). In kind it is cell-based, human. To be noted: FITC-labeled scFv, permissive temperature (37° C.). The method, then: FIGS. 3A, 3B, 3C, 3D, 3E. scFv Bc-12 and Bc-15 inhibit αvβ3 mediated adhesive breast cancer cell functions. (A) Adhesion of BMS human breast cancer cells to fibrinogen (Fg), vitronectin (VN) or type I collagen (Col I) in the absence or presence of 3 μM Bc-12, Bc-15 or their RGE mutants Mut-12, Mut-15, compared to 200 μM GRGDSPK peptide (SEQ ID NO: 11). Protein coating concentrations: 10 μg/ml (VN, Col I) or 20 μg/ml (Fg). Adhesion time: 30 min at 37° C. (B) Effect of scFvs on haptotactic BMS cell migration toward a fibrinogen substrate (16 hrs at 37° C. in transwell chambers with or without 2 μM Bc-12, Bc-15 or their RGE mutants Mut-12 or Mut-15, compared to 200 μM GRGDSPK peptide) (SEQ ID NO: 11). (C) Effect of scFvs on breast cancer cell arrest during blood flow. […] Tumor cell adhesion was quantified by image acquisition at 30 predefined positions during blood flow. Left: representative images of platelet signal (thrombi, green fluorescence) and tumor cell signal (red fluorescence) at identical x,y positions. […]
Antibody internalization. Breast cancer cells grown in chamber slide wells were incubated with 20 μg/ml FITC-labeled scFv in serum free EMEM for 3 h either at 4° C. or 37° C., washed 10 times, fixed and permeabilized with 95% ethanol, stained with propidium iodide, mounted in antifade solution, and analyzed with a laser scanning confocal microscope.

Positions count from the first letter of the chain named.

B1: Bc-12: patient derived human scFv antibody against activated αvβ3 with RGD motif in CDR-H3; cDNA ATCC PTA-6303 (protein)
scFv: MAQVQLVQSGAEVKKPGASVKVSCKASGYTFSNYGITWVRQAPGQGLEWMGWINNGNTHYAQKFQGRVTMTTDTSTSTAYMELRSLRSDDTAVYYCARDPRGDDEPYWGQGTLVTVSSGGGGSGGGGSGGGGSEIVLTQSPLSLPVTLGQPASISCRSSQNLVYSDGNTYLSWFQQRPGQSPRRLIYKVSNRDSGVPDRFSGSGSGTDFTLKISRVEAEDIGVYYCMQGTHWPPRTFGQGTKVEIKRGLGGLVDYKDDDDK
For the molecule B1, the fibrinogen directed migration entry in assay [1] was “inhibited BMS human breast cancer cell migration almost completely”. Moreover, in the assay with BMS breast cancer cells, the “binding and internalization by adherent cells” value is “efficiently bound and readily internalized”.

B2: Mut-12: RGE containing mutant version of scFv Bc-12 (protein)
chain: B1 scFv with D103E
For the molecule B2, in assay [1], the fibrinogen directed migration result is “only a minor effect”.
